This note sets out measurements from PMC6555819, “Comprehensive study of nuclear receptor DNA binding provides a revised framework for understanding receptor specificity”.

B1: NRC3_wobSeed82_DR3_C13G_o1 (dsDNA)
DNA 1: GCATCGAAAGGTGGACGAGGTGAGTATACACCGTTTGCGATTGACAGCGTAGAATGAAGG
DNA 2: CCTTCATTCTACGCTGTCAATCGCAAACGGTGTATACTCACCTCGTCCACCTTTCGATGC
B2: NRC3_random_hg19_303_o1 (dsDNA)
DNA 1: GCAAGATCTCTACAATGAATTGTACCAATGCTCCAGGCGATTGACAGCGTAGAATGAAGG
DNA 2: CCTTCATTCTACGCTGTCAATCGCCTGGAGCATTGGTACAATTCATTGTAGAGATCTTGC
B3: NRC3_wobSeed102_DR4_G11A_o1 (dsDNA)
DNA 1: GCCCTAGCAGACCAATCTGGGTCACTCAAGGCTTGAGCGATTGACAGCGTAGAATGAAGG
DNA 2: CCTTCATTCTACGCTGTCAATCGCTCAAGCCTTGAGTGACCCAGATTGGTCTGCTAGGGC
B4: NRC3_wobSeed101_DR4_A14T_o1 (dsDNA)
DNA 1: GCCCTTACGGGTCTCTCCAGGTTATAGCATCGGAGTGCGATTGACAGCGTAGAATGAAGG
DNA 2: CCTTCATTCTACGCTGTCAATCGCACTCCGATGCTATAACCTGGAGAGACCCGTAAGGGC
B5: NRC3_wobSeed122_DR5_A20T_o1 (dsDNA)
DNA 1: GCGCTAGTTGGTCAGTAAATGGTCACACACCGGTCGGCGATTGACAGCGTAGAATGAAGG
DNA 2: CCTTCATTCTACGCTGTCAATCGCCGACCGGTGTGTGACCATTTACTGACCAACTAGCGC
B6: NRC3_wobSeed38_DR1_G11T_o1 (dsDNA)
DNA 1: GCCCTGCTAGTTCAATGGTCAGCTAAAGCAGCTCGCGCGATTGACAGCGTAGAATGAAGG
DNA 2: CCTTCATTCTACGCTGTCAATCGCGCGAGCTGCTTTAGCTGACCATTGAACTAGCAGGGC
B7: NRC3_wobSeed38_DR1_A9C_o1 (dsDNA)
DNA 1: B6 DNA 1 with A9C, T11G
DNA 2: B6 DNA 2 with A50C, T52G
B8: NRC3_wobSeed6_DR0_G15C_o1 (dsDNA)
DNA 1: GCCCTAGCAGGCCACGGTCACTCAAGCATTTCGCTTGCGATTGACAGCGTAGAATGAAGG
DNA 2: CCTTCATTCTACGCTGTCAATCGCAAGCGAAATGCTTGAGTGACCGTGGCCTGCTAGGGC
B9: NRC3_wobSeed133_DR5_A14C_o1 (dsDNA)
DNA 1: GCCGTCCAAGGTCCATGCTAGGTCAGTGAAAGCATTGCGATTGACAGCGTAGAATGAAGG
DNA 2: CCTTCATTCTACGCTGTCAATCGCAATGCTTTCACTGACCTAGCATGGACCTTGGACGGC
B10: NRC3_wobSeed50_DR2_A17T_o1 (dsDNA)
DNA 1: GCCCTAGTTGGTCAGGTGGTCACACACCGGATATGAGCGATTGACAGCGTAGAATGAAGG
DNA 2: CCTTCATTCTACGCTGTCAATCGCTCATATCCGGTGTGTGACCACCTGACCAACTAGGGC
B11: NRC3_random_hg19_167_o1 (dsDNA)
DNA 1: GCTTTGAAGACACTGAAGGAGTGAGCCATTTGGATCGCGATTGACAGCGTAGAATGAAGG
DNA 2: CCTTCATTCTACGCTGTCAATCGCGATCCAAATGGCTCACTCCTTCAGTGTCTTCAAAGC
B12: NRC3_random_hg19_221_o1 (dsDNA)
DNA 1: GCCTTGAATCCAGGAGGCAGAGGCTGCAGTGAGCTGGCGATTGACAGCGTAGAATGAAGG
DNA 2: CCTTCATTCTACGCTGTCAATCGCCAGCTCACTGCAGCCTCTGCCTCCTGGATTCAAGGC
B13: NRC3_random_hg19_239_o1 (dsDNA)
DNA 1: GCATACATAAGGTGATTTGGCTACATGTATAGACAGGCGATTGACAGCGTAGAATGAAGG
DNA 2: CCTTCATTCTACGCTGTCAATCGCCTGTCTATACATGTAGCCAAATCACCTTATGTATGC
B14: NRC3_wobSeed42_DR1_A14T_o1 (dsDNA)
DNA 1: GCTATACAGGGTCTAAGGCCAGAGTACGAATGTCGAGCGATTGACAGCGTAGAATGAAGG
DNA 2: CCTTCATTCTACGCTGTCAATCGCTCGACATTCGTACTCTGGCCTTAGACCCTGTATAGC
B15: NRC3_wobSeed90_DR3_C13A_o1 (dsDNA)
DNA 1: GCCATACAGGGTAAGCTAGGCCAGAGTAGGGACGGCGCGATTGACAGCGTAGAATGAAGG
DNA 2: CCTTCATTCTACGCTGTCAATCGCGCCGTCCCTACTCTGGCCTAGCTTACCCTGTATGGC
B16: NRC3_random_hg19_44_o1 (dsDNA)
DNA 1: GCATTTGAGATCTCAGTTTCTGCATACTGAATCACCGCGATTGACAGCGTAGAATGAAGG
DNA 2: CCTTCATTCTACGCTGTCAATCGCGGTGATTCAGTATGCAGAAACTGAGATCTCAAATGC
B17: NRC3_wobSeed14_DR0_G11T_o1 (dsDNA)
DNA 1: GCCCTGCTAGTTCATGGTCAGCTAATCTACAGTATGGCGATTGACAGCGTAGAATGAAGG
DNA 2: CCTTCATTCTACGCTGTCAATCGCCATACTGTAGATTAGCTGACCATGAACTAGCAGGGC
B18: NRC3_wobSeed141_DR5_T5A_o1 (dsDNA)
DNA 1: GCAGACAAAGTTCAGGACGAGGTAACGTAAAGCACGGCGATTGACAGCGTAGAATGAAGG
DNA 2: CCTTCATTCTACGCTGTCAATCGCCGTGCTTTACGTTACCTCGTCCTGAACTTTGTCTGC
B19: NRC3_wobSeed47_DR1_G11C_o1 (dsDNA)
DNA 1: GCGGAACGAGCGCAAAGTTGATAGCATCTGTCGACGGCGATTGACAGCGTAGAATGAAGG
DNA 2: CCTTCATTCTACGCTGTCAATCGCCGTCGACAGATGCTATCAACTTTGCGCTCGTTCCGC
B20: NRC3_wobSeed64_DR2_A9C_o1 (dsDNA)
DNA 1: GCTAGCCTCGGTCATTGGGCCAGTATAGTACGCATCGCGATTGACAGCGTAGAATGAAGG
DNA 2: CCTTCATTCTACGCTGTCAATCGCGATGCGTACTATACTGGCCCAATGACCGAGGCTAGC
B21: NRC3_wobSeed2_DR0_A20T_o1 (dsDNA)
DNA 1: GCCCTAGTTGGTCAAGGTCTCACACGCTATAGGTACGCGATTGACAGCGTAGAATGAAGG
DNA 2: CCTTCATTCTACGCTGTCAATCGCGTACCTATAGCGTGTGAGACCTTGACCAACTAGGGC
B22: NRC3_wobSeed134_DR5_A14G_o1 (dsDNA)
DNA 1: GCGCTGCTAGGTCGACTGATGGTCAGCTAAAGCTCGGCGATTGACAGCGTAGAATGAAGG
DNA 2: CCTTCATTCTACGCTGTCAATCGCCGAGCTTTAGCTGACCATCAGTCGACCTAGCAGCGC
B23: NRC3_wobSeed61_DR2_G11C_o1 (dsDNA)
DNA 1: GCCGTCCAAGCTCAGCAGGTCAGTGAAAGCGACGTGGCGATTGACAGCGTAGAATGAAGG
DNA 2: CCTTCATTCTACGCTGTCAATCGCCACGTCGCTTTCACTGACCTGCTGAGCTTGGACGGC
B24: NRC3_random_hg19_367_o1 (dsDNA)
DNA 1: GCATCTGTGTAACCAGCACCACAGTTAAGATACAGAGCGATTGACAGCGTAGAATGAAGG
DNA 2: CCTTCATTCTACGCTGTCAATCGCTCTGTATCTTAACTGTGGTGCTGGTTACACAGATGC
B25: NRC3_wobSeed40_DR1_G10A_o1 (dsDNA)
DNA 1: GCTAGCCTAAGTCATGGGCCAGTATACCACGCGAACGCGATTGACAGCGTAGAATGAAGG
DNA 2: CCTTCATTCTACGCTGTCAATCGCGTTCGCGTGGTATACTGGCCCATGACTTAGGCTAGC
B26: NRC3_wobSeed4_DR0_G16T_o1 (dsDNA)
DNA 1: GCCCTACTGGGCCAATGTCATTGATCAGTCAAAGCAGCGATTGACAGCGTAGAATGAAGG
DNA 2: CCTTCATTCTACGCTGTCAATCGCTGCTTTGACTGATCAATGACATTGGCCCAGTAGGGC
B27: NRC3_wobSeed15_DR0_G10T_o1 (dsDNA)
DNA 1: GCCGAACTATGTCAAGGACAGTGAATCTCCGCACGCGCGATTGACAGCGTAGAATGAAGG
DNA 2: CCTTCATTCTACGCTGTCAATCGCGCGTGCGGAGATTCACTGTCCTTGACATAGTTCGGC
B28: NRC3_wobSeed44_DR1_A14T_o1 (dsDNA)
DNA 1: GCTGAATGAGGTTTAAGATCAGGGAACGTGGCGTCGGCGATTGACAGCGTAGAATGAAGG
DNA 2: CCTTCATTCTACGCTGTCAATCGCCGACGCCACGTTCCCTGATCTTAAACCTCATTCAGC
B29: NRC3_wobSeed99_DR4_A24T_o1 (dsDNA)
DNA 1: GCTCTCGGAGGACACGAAAGGTCTGAGCTCGACATCGCGATTGACAGCGTAGAATGAAGG
DNA 2: CCTTCATTCTACGCTGTCAATCGCGATGTCGAGCTCAGACCTTTCGTGTCCTCCGAGAGC
B30: NRC3_wobSeed99_DR4_G20A_o1 (dsDNA)
DNA 1: B29 DNA 1 with G20A, T24A
DNA 2: B29 DNA 2 with A37T, C41T
B31: NRC3_wobSeed48_DR1_G5T_o1 (dsDNA)
DNA 1: GCCCTAGTAGGTTATGGGGCATTCAGGCAACGGTGAGCGATTGACAGCGTAGAATGAAGG
DNA 2: CCTTCATTCTACGCTGTCAATCGCTCACCGTTGCCTGAATGCCCCATAACCTACTAGGGC

Substitutions are numbered along the chain they refer to.

PPARa:RXRa, sequence (Q07869 whole entry, chain 1 of 2): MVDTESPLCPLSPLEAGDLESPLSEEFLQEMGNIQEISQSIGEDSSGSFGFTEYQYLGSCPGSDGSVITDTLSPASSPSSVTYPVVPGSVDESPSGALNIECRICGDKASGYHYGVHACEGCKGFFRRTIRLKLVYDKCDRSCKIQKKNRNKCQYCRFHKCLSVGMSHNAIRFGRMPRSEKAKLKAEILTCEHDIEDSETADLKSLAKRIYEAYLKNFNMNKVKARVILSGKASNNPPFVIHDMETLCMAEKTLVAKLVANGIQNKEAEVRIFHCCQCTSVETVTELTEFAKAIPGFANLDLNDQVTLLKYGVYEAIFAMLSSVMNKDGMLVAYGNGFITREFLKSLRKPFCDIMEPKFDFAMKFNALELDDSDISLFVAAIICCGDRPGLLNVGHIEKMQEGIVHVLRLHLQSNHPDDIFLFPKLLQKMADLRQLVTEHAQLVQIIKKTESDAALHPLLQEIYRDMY
PPARa:RXRa, sequence (P19793 whole entry, chain 2 of 2): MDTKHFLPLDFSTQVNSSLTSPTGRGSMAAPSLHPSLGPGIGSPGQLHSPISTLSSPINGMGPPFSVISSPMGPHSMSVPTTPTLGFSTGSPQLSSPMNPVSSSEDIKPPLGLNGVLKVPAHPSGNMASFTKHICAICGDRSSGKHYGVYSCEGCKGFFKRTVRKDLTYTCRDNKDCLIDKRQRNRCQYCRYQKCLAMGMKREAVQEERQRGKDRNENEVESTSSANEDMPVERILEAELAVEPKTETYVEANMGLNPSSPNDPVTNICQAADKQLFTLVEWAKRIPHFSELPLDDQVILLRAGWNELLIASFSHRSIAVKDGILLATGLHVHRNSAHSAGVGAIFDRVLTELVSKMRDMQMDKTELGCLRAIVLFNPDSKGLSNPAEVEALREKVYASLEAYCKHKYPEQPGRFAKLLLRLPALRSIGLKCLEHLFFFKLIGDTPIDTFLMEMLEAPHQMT

This series has as its target PPARa:RXRa (Homo sapiens, UniProt Q07869;P19793 full;full). Nature of the series: no ligand; PBM; 270 nM : 90 nM RXRa; PBS pH 7.4, 2% milk, 0.02% Triton X-100, 1 mM DTT, BSA, 0.4 mg/ml salmon testes DNA. Conditions: tags: GST kept;His cleaved; copies: 1;1; label: surface-attached array probe. The gist of the method: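 Custom Agilent 4×180K protein-binding microarrays carried double-stranded probes, each with a 34-nt variable region. These regions held direct-repeat seeds, single-nucleotide variants, half-site ablations and random human genomic background sequences. Ligand-free nuclear receptor dimers were incubated on the arrays for 1 h, antibodies against each partner (one per run) detected binding, and scanned fluorescence was regression-normalized. Binding z-scores take the random background probes as reference.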
With B1, the binding signal is 0.49 PBM z-score against 500 random probes.

As for B2, the binding signal is -0.05 PBM z-score against 500 random probes.

On to B3, for which the binding signal was 3.03 PBM z-score against 500 random probes.

For the molecule B4, the binding signal was 0.07 PBM z-score against 500 random probes.

Consider B5, for which the binding signal was 0.26 PBM z-score against 500 random probes.

Regarding B6, the binding signal is 0.22 PBM z-score against 500 random probes.

Turning to B7, the binding signal is 0.02 PBM z-score against 500 random probes.

For B8, the binding signal was 0.43 PBM z-score against 500 random probes.

With B9, the binding signal was 0.33 PBM z-score against 500 random probes.

For B10, the binding signal is 0.4 PBM z-score against 500 random probes.

For the molecule B11, the binding signal is -0.13 PBM z-score against 500 random probes.

Consider B12, for which the binding signal is -0.29 PBM z-score against 500 random probes.

In the case of B13, the binding signal is 0.32 PBM z-score against 500 random probes.

For the molecule B14, the binding signal is 0.39 PBM z-score against 500 random probes.

Turning to B15, the binding signal is -0.35 PBM z-score against 500 random probes.

For the molecule B16, the binding signal was -0.2 PBM z-score against 500 random probes.

In the case of B17, the binding signal was 0.23 PBM z-score against 500 random probes.

Regarding B18, the binding signal was 3 PBM z-score against 500 random probes.

For the molecule B19, the binding signal was 0.32 PBM z-score against 500 random probes.

With B20, the binding signal was 0.15 PBM z-score against 500 random probes.

For B21, the binding signal is 0.37 PBM z-score against 500 random probes.

For B22, the binding signal is 0.01 PBM z-score against 500 random probes.

Turning to B23, the binding signal was 0.35 PBM z-score against 500 random probes.

Regarding B24, the binding signal was -0.28 PBM z-score against 500 random probes.

B25: the binding signal was -0.06 PBM z-score against 500 random probes.

As to B26, the binding signal is 0.47 PBM z-score against 500 random probes.

On to B27, for which the binding signal was 0.36 PBM z-score against 500 random probes.

Regarding B28, the binding signal was 0.18 PBM z-score against 500 random probes.

For the molecule B29, the binding signal is 0.43 PBM z-score against 500 random probes.

Take B30: the binding signal is 0.36 PBM z-score against 500 random probes.

Take B31: the binding signal was 3.05 PBM z-score against 500 random probes.
